For series [1], the target named is T1, recombinant human tropoelastin (hTE) (Sigma-Aldrich), P15502.
T1 chain: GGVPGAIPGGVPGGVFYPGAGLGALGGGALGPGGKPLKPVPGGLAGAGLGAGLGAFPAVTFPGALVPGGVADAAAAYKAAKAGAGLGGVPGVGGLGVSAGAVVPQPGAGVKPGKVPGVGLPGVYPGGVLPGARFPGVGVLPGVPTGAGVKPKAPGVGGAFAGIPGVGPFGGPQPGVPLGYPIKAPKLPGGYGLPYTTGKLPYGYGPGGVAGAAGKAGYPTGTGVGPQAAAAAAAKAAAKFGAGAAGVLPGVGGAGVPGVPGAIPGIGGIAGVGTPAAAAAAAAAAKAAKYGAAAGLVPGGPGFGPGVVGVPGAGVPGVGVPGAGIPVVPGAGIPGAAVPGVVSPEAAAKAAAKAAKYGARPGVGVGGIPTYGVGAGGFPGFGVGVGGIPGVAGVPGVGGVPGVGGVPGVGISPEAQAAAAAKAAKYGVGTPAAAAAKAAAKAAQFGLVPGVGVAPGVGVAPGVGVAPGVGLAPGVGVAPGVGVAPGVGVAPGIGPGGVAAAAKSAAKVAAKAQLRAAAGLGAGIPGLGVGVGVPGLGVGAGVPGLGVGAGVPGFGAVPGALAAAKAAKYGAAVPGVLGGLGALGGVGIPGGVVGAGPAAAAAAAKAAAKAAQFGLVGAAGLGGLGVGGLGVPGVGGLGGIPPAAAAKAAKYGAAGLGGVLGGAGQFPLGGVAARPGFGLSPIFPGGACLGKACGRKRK

The target of series [2] is T2, Elactiv′ polypeptide (polypeptide derived from tropoelastin, Cys-Flag-tagged).
T2 chain: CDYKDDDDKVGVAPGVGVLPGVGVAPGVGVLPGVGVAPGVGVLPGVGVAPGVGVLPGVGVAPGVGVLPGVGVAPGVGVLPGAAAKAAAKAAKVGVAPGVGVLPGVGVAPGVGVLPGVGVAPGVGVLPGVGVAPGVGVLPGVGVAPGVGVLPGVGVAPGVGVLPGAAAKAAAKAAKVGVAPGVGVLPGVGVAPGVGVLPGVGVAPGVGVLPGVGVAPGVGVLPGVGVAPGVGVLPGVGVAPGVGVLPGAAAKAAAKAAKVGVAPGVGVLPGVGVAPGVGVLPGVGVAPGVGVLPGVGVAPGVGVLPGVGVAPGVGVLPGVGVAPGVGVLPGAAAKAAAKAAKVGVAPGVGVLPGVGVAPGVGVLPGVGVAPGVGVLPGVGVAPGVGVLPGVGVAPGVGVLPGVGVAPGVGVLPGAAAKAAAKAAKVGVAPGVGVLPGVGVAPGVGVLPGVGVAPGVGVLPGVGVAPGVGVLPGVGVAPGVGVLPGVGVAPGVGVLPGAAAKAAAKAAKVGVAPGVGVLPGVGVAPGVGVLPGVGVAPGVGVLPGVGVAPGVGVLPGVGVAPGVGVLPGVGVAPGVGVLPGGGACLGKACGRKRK

B1: recombinant human MMP-12 (protein)
chain: GPVWRKHYITYRINNYTPDMNREDVDYAIRKAFQVWSNVTPLKFSKINTGMADILVVFARGAHGDFHAFDGKGGILAHAFGPGSGIGGDAHFDEDEFWTTHSGGTNLFLTAVHEIGHSLGLGHSSDPKAVMFPTYKYVDINTFRLSADDIRGIQSLYGDPKENQRLPNPDNSEPALCDPNLSFDAVTTVGNKIFFFKDRFFWLKVSERPKTSVNLISSLWPTLPSGIEAAYEIEARNQVFLFKDDKYWLISNLRPEPNYPKSIHSFGFPNFVKKIDAAVFNPRFYRTYFFVDNQYWRYDERRQMMDPGYPKLITKNFQGIGPKIDAVFYSKNKYYYFFQGSNQFEYDFLLQRITKTLKSNSWFGC
For B1, the “kinetics of degradation by rhMMP-12, Western blot” value in series [1] is reported as “Elactiv′ is progressively degraded by MMP-12, but to a lesser extent than human tropoelastin”; in series [2], “Elactiv′ is progressively degraded by MMP-12, but to a lesser extent than human tropoelastin”.

For the origin of these results see patent US20190169269.
